The results in this text go back to US20190194284A1.

Read-outs that look alike come from different tables or passages of the source.

Holding throughout (test): cell-based or functional assay
Test [1] concerns the target T1, type I interferon-α/β receptor (IFNAR), composed of the IFNAR1 and IFNAR2 subunits (human) (UniProt P17181).
T1 sequence (looked up) 1: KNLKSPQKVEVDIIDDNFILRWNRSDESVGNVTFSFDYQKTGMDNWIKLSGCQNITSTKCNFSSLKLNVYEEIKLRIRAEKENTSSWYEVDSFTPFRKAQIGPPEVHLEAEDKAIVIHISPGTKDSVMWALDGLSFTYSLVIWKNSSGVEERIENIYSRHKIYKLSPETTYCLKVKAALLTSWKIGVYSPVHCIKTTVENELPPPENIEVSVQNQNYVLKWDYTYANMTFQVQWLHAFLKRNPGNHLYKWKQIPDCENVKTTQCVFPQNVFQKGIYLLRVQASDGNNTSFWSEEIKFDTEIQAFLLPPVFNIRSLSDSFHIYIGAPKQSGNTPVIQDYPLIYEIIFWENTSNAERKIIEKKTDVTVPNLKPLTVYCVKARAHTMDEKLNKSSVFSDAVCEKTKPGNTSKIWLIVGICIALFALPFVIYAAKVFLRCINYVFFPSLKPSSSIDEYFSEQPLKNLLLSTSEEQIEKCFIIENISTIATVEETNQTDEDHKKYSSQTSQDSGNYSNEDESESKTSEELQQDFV
T1 sequence (looked up) 2: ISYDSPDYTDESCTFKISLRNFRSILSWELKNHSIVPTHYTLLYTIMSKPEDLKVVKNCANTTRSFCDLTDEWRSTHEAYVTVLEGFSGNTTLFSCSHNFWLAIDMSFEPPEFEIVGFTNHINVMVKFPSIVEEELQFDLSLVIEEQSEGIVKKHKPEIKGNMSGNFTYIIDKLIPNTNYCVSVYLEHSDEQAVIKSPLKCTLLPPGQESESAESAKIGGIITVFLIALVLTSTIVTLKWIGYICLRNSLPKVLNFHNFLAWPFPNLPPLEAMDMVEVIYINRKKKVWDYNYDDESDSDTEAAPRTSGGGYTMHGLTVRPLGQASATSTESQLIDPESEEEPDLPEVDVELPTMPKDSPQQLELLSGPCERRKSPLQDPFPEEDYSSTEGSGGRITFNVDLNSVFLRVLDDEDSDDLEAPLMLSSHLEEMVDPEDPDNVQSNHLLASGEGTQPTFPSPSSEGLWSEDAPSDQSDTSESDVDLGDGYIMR

The target in a further test is T2, human CD20 (human) (UniProt P11836).
T2 sequence (looked up): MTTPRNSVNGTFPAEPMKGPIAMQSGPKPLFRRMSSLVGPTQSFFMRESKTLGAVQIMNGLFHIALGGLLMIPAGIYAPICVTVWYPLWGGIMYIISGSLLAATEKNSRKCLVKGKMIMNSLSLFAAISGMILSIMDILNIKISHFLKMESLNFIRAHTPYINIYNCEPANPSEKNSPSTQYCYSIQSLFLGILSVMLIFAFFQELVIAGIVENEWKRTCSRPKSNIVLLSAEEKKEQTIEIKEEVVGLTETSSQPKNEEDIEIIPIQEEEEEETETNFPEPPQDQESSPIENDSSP

Test [2] deals with T1, type I interferon-α/β receptor (IFNAR), composed of the IFNAR1 and IFNAR2 subunits (human). This is another data set of the same source.

Consider “wild type human IFN-β (from UniProt P01574 22-187) (ligand)”, for which, in test [1], the EC50 for pSTAT1 in CD19 negative cells of human PBMCs amounted to 0.592 ng/ml and the EC50 for pSTAT1 in CD19 positive cells of human PBMCs was 0.422 ng/ml.

B1: huCD20 VHH-20*GGS-huIFNβ-6*His, wild type hIFNβ coupled to anti-huCD20 VHH (P-126) (protein)
chain: QVQLQESGGGLAQAGGSLRLSCAASGRTFSMGWFRQAPGKEREFVAAITYSGGSPYYASSVRGRFTISRDNAKNTVYLQMNSLKPEDTAVYYCAANPTYGSDWNAENWGQGTQVTVSSGGSGGSGGSGGSGGSGGSGGSGGSGGSGGSGGSGGSGGSGGSGGSGGSGGSGGSGGSGGSMSYNLLGFLQRSSNFQCQKLLWQLNGRLEYCLKDRMNFDIPEEIKQLQQFQKEDAALTIYEMLQNIFAIFRQDSSSTGWNETIVENLLANVYHQINHLKTVLEEKLEKEDFTRGKLMSSLHLKRYYGRILHYLKAKEYSHCAWTIVRVEILRNFYFINRLTGYLRNHHHHHH
For B1, in the test with human CD20 (human), the EC50 for pSTAT1 in CD19 positive (CD20 positive B) cells of human PBMCs is 97 ng/ml; the Targeting effect (EC50 on CD19 negative cells divided by that on CD19 positive cells) worked out at 7.1 fold; the targeting effect, anti-proliferative activity on Daudi (CD20 positive) versus Wish (CD20 negative) cells was 24.3 fold. This molecule also showed an EC50 for pSTAT1 in CD19 negative cells of human PBMCs in test [2] of 687 ng/ml.
